This data set is described as follows: self-splicing fitness, log relative to wild type (ln ratio); higher = more splicing; Tetrahymena group I intron in knt gene, E. coli kanamycin selection, DiMSum; sequences stand for … in CUCUCU…GGAGGGAAAAGUUAUCAGGCAUGCACCUGGUAGCUAGUCUUUAAACCAAUAGAUUGCAUCGGUUUAAAAGGCAAGACCGUCAAAUUGCGGGAAAGGGGUCAACAGCCGUUCAGUACCAAGUCUCAGGGGAAACUUUGAGAUGGCCUUGCAAAGGGUAUGGUAAUAAGCUGACGGACAUGGUCCUAACCACGCAGCCAAGUCCUAAGUCAACAGAUCUUCUGUUGAUAUGGAUGCAGUUCACAGACUAAAUGUCGGUCGGGGAAGAUGUAUUCUUCUCAUAAGAUAUAGUCGGACCUCUCCUUAAUGGGAGCUAGCGGAUGAAGUGAUGCAACACUGGAGCCGCUGGGAACUAAUUUGUAUGCGAAAGUAUAUUGAUUAGUUUUGGAGUACUCGUGGUCG
The method, boiled down:
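A randomised library covering all eight P1ex-region intron nucleotides was built with the intron in the knt kanamycin-resistance gene on pET-22b(+) and held in E. coli BL21(DE3). Cells were grown overnight at 37°C or 30°C on LB agar, with or without 25 μg/mL kanamycin, plus 100 μg/mL carbenicillin, 50 μM IPTG and 0.2% rhamnose, and pooled colonies were amplicon-sequenced on an Illumina HiSeq 2500. DiMSum fitness is the error-weighted combination of wild-type-normalised replicate fold changes, kanamycin versus none.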

The results in this text go back to the supplement of paper PMC7877785.

± gives the uncertainty stated by the source.

In the case of CAAAAGCAAUAUUACGCAGC, the “self-splicing fitness (ln)” value is -3.68 ± 0.16 (30 °C) and -2.36 ± 0.16 (37 °C).

As to GCAAAGCAAUAUUACGGAGC, the “self-splicing fitness (ln)” value is -3.91 ± 0.34 (30 °C) and -2.07 ± 0.19 (37 °C). On to UUGGAGCAAUAUUACGUAUA, for which the “self-splicing fitness (ln)” value (30 °C) was -2.08 ± 0.44. Regarding CUCAAGCAAUAUUACGACGU, the “self-splicing fitness (ln)” value runs as follows: (30 °C) -2.18 ± 0.098; (37 °C) -1.54 ± 0.11. For GAGCAGCAAUAUUACGCGGU, in that order: -3.17 ± 0.27 and -0.69 ± 0.22. For GACGAGCAAUAUUACGCAAA, in that order: -3.39 ± 0.27 and -1.96 ± 0.22.

As to ACUUAGCAAUAUUACGCUCC, the “self-splicing fitness (ln)” value was -1.44 ± 0.22 (30 °C) and 0.041 ± 0.19 (37 °C). Taken in the same sequence, the figures for AAACAGCAAUAUUACGACGC were -1.43 ± 0.081 and -0.718 ± 0.096.

For AUAUAGCAAUAUUACGGAGU, the “self-splicing fitness (ln)” value runs as follows: (30 °C) -2.29 ± 0.13; (37 °C) -1.82 ± 0.2.

In the case of GCGGAGCAAUAUUACGCUGA, under “30 °C”, the “self-splicing fitness (ln)” value is -3.01 ± 0.35. Turning to CAUAAGCAAUAUUACGUUCA, the “self-splicing fitness (ln)” value by setting is: (30 °C) -3.29 ± 0.13; (37 °C) -1.95 ± 0.13. With GUGUAGCAAUAUUACGCCUU, the “self-splicing fitness (ln)” value is -2.63 ± 0.39 (30 °C) and -2.56 ± 0.37 (37 °C). Consider CUCGAGCAAUAUUACGCCUG, for which the “self-splicing fitness (ln)” value (30 °C) is -3.03 ± 0.24 and the “self-splicing fitness (ln)” value (37 °C) is -2.58 ± 0.49.

With GAGGAGCAAUAUUACGCUAU, the “self-splicing fitness (ln)” value (30 °C) was -2.8 ± 0.27 and the “self-splicing fitness (ln)” value (37 °C) was -2.05 ± 0.45. Taken in the same sequence, the figures for CGCCAGCAAUAUUACGGGAG were -1.92 ± 0.072 and -1.38 ± 0.094. Take UCUUAGCAAUAUUACGCGGA: the “self-splicing fitness (ln)” value (37 °C) is -2.03 ± 0.41. For the sequence CGAAAGCAAUAUUACGUCGG, the “self-splicing fitness (ln)” value was -0.496 ± 0.06 (30 °C) and -0.0301 ± 0.071 (37 °C).

With GCCCAGCAAUAUUACGCCUU, the “self-splicing fitness (ln)” value reads like this: (30 °C) -1.02 ± 0.081; (37 °C) 0.189 ± 0.088. Taken in the same sequence, the figures for GCACAGCAAUAUUACGCUAU were -1.98 ± 0.08 and -0.752 ± 0.086. For AUCCAGCAAUAUUACGCACA, in that order: -0.451 ± 0.098 and 0.366 ± 0.1. For AUGGAGCAAUAUUACGCCGA, in that order: -2.82 ± 0.32 and -2.87 ± 0.48. For UAUGAGCAAUAUUACGUCUU, the “self-splicing fitness (ln)” value is -2.71 ± 0.27 (30 °C) and -1.93 ± 0.23 (37 °C). Taken in the same sequence, the figures for GAUCAGCAAUAUUACGCCCA were -0.563 ± 0.2 and -0.558 ± 0.28. For the sequence GUAUAGCAAUAUUACGCUGG, the “self-splicing fitness (ln)” value is -2.35 ± 0.17 (30 °C) and -1.01 ± 0.18 (37 °C). Take CCUCAGCAAUAUUACGACAG: the “self-splicing fitness (ln)” value by setting is: (30 °C) -1.06 ± 0.066; (37 °C) -0.262 ± 0.079. Taken in the same sequence, the figures for ACUGAGCAAUAUUACGCACC were -2 ± 0.4 and -2.15 ± 0.42.

In the case of CCUGAGCAAUAUUACGCCGA, the “self-splicing fitness (ln)” value is -3.1 ± 0.39 (30 °C) and -3.2 ± 0.4 (37 °C).

For UUGAAGCAAUAUUACGCUCA, the “self-splicing fitness (ln)” value runs as follows: (30 °C) -0.439 ± 0.12; (37 °C) 1.17 ± 0.19. Taken in the same sequence, the figures for CCGCAGCAAUAUUACGUCAU were -3.18 ± 0.15 and -2.25 ± 0.2. With ACGGAGCAAUAUUACGUAGU, the “self-splicing fitness (ln)” value (30 °C) is -2.37 ± 0.11 and the “self-splicing fitness (ln)” value (37 °C) is -1.36 ± 0.12. As to ACGAAGCAAUAUUACGAUAC, the “self-splicing fitness (ln)” value runs as follows: (30 °C) -3.68 ± 0.2; (37 °C) -2.2 ± 0.22.

For the sequence CUUCAGCAAUAUUACGCAGG, the “self-splicing fitness (ln)” value is, setting by setting: (30 °C) -4.17 ± 0.34; (37 °C) -2.07 ± 0.26.

GCUCAGCAAUAUUACGUCAC: the “self-splicing fitness (ln)” value reads like this: (30 °C) -3.37 ± 0.22; (37 °C) -2.06 ± 0.22. With CGUUAGCAAUAUUACGCGUA, for the setting “37 °C”, the “self-splicing fitness (ln)” value is -0.996 ± 0.25. Regarding CAUCAGCAAUAUUACGAGUC, the “self-splicing fitness (ln)” value is, setting by setting: (30 °C) -4.85 ± 0.34; (37 °C) -1.6 ± 0.21. Taken in the same sequence, the figures for GUCAAGCAAUAUUACGGCGC were -0.751 ± 0.11 and -0.437 ± 0.14. Turning to AUCCAGCAAUAUUACGGCGA, the “self-splicing fitness (ln)” value (30 °C) is -1.02 ± 0.098 and the “self-splicing fitness (ln)” value (37 °C) was -0.399 ± 0.13. Taken in the same sequence, the figures for ACAGAGCAAUAUUACGGAGU were -3.05 ± 0.23 and -3.24 ± 0.35. For AUCUAGCAAUAUUACGCCUU, in that order: -0.764 ± 0.073 and 0.116 ± 0.095.
